Patent US20150118233A1 (Ablynx, published 2015)
Changes are numbered by the printed parent chain.

B1: Nanobody NC23 (VHH)
VHH: EVQLVESGGGLVQPGGSLRLSCAASGRTFSSIAMGWFRQAPGKEREFVAAISWSRGRTFYADSVKGRFIISRDDAANTAYLQMNSLKPEDTAVYYCAVDTASWNSGSFIYDWAYDHWGQGTQVTVSS
B2: Nanobody 191D3 (VHH)
VHH: EVQLVESGGGLVQAGGSLRLSCEASGRTYSRYGMGWFRQAPGKEREFVAAVSRLSGPRTVYADSVKGRFTISRDNAENTVYLQMNSLKPEDTAVYTCAAELTNRNSGAYYYAWAYDYWGQGTQVTVSS
B3: Nanobody 1E4 (VHH)
VHH: B2 VHH with Y29F, R31S, S106P, A112T
B4: Nanobody 7B2 (VHH)
VHH: EVQLVESGGGLVQAGDSLRLSCAASGRTFSSYAMGWFRQAPGKEREFVAAISWSDGSTYYADSVKGRFTISRDNAKNTVYLQMNSLKPEDTAVYYCAADLTSTNPGSYIYIWAYDYWGQGTQVTVSS
B5: Nanobody NC41 (VHH)
VHH: EVQLVESGGGLVQAGGSLSISCAASGGSLSNYVLGWFRQAPGKEREFVAAINWRGDITIGPPNVEGRFTISRDNAKNTGYLQMNSLAPDDTAVYYCGAGTPLNPGAYIYDWSYDYWGRGTQVTVSS
B6: Nanobody 15H8 (VHH)
VHH: EVQLVESGGGLVQAGGSLRLSCAASGRSFSNYVLGWFRQAPGKEREFVAAISFRGDSAIGAPSVEGRFTISRDNAKNTGYLQMNSLVPDDTAVYYCGAGTPLNPGAYIYDWSYDYWGRGTQVTVSS
B7: Nanobody 15B3 (VHH)
VHH: EVQLVESGGGLVQPGGSLRLSCAASGLTLDYYALGWFRQAPGKEREGVSCISSSDHSTTYTDSVKGRFTISWDNAKNTLYLQMNSLKPGDTAVYYCAADPALGCYSGSYYPRYDYWGQGTQVTVSS
B8: Nanobody 191E4 (VHH)
VHH: EVQLVESGGGLVQAGGSLRLSCAASGPTFSADTMGWFRQAPGKEREFVATIPWSGGIAYYSDSVKGRFTMSRDNAKNTVDLQMNSLKPEDTALYYCAGSSRIYIYSDSLSERSYDYWGQGTQVTVSS
B9: NC41v17 (VHH)
VHH: EVQLLESGGGLVQPGGSLRLSCAASGGSLSNYVLGWFRQAPGKGREFVAAINWRGDITIGPPNVEGRFTISRDNSKNTLYLQMNSLRPEDTAVYYCGAGTPLNPGAYIYDWSYDYWGQGTLVTVSS
B10: NC41v06 (VHH)
VHH: B9 VHH with G55D, S75A

These binders were tested against F protein of hRSV strain A-2 (hRSV strain A-2) (assay: cell-based or functional assay).

Going from B1 to B2, the “RSV neutralization IC50” value rises from 109 nM to 227 nM (2.1-fold).

First: B3
Second: B4
The “RSV neutralization IC50” value of the first is 1.7-fold higher: 298 nM for the first, 177 nM for the second.

Going from B5 to B6, the “RSV neutralization IC50” value rises from 26 nM to 218 nM (8.4-fold).

What follows are binders tested against F protein of hRSV strain B-1 (hRSV strain B-1) (assay: cell-based or functional assay).

Going from B7 to B8, the “RSV neutralization IC50” value rises from 1270 nM to 4330 nM (3.4-fold).

B4 and B5 are within 1.5-fold of each other in “RSV neutralization IC50” value: 2690 nM for the first, 4000 nM for the second.

With B6 the “RSV neutralization IC50” value was 2340 nM.

The binders below were run against F protein of hRSV strain Long (hRSV strain Long) (assay: cell-based or functional assay).

In the case of B9, the “Neutralization IC50 (first assay)” value is reported as 249 nM.

With B9 the “Neutralization IC50 (second assay)” value was 149 nM.

Target: F protein of hRSV strain B-1 (hRSV strain B-1)
Test: cell-based or functional assay
Remark: another data set of the same source

B10 and B9 are within 1.5-fold of each other in “Neutralization IC50 (first assay)” value: 806 nM for the first, 677 nM for the second.

With B5 the “Neutralization IC50 (first assay)” value was 4710 nM.

Compared with B9, B5 is 9.5-fold higher in “Neutralization IC50 (second assay)” value: 346 nM for the first, 3290 nM for the second.
